Values belong to the substance of their own block, whether it stands above or below them.
Tests used:
Test in all cases: cell-based or functional assay
[1] = target: human CD40 antigen expressed on the surface of cells (human) (UniProt P25942)
[2] = target: human CD40 antigen on the surface of B cells in human PBMC (human) (UniProt P25942)
[3] = target: human CD40 on the surface of B cells within PBMC from normal human subjects (human) (UniProt P25942)
[4] = target: human CD40 on normal human B cells (PBMC or purified B cells) (human) (UniProt P25942)
Chain of human CD40 on normal human B cells (PBMC or purified B cells) (human) (P25942 20-277): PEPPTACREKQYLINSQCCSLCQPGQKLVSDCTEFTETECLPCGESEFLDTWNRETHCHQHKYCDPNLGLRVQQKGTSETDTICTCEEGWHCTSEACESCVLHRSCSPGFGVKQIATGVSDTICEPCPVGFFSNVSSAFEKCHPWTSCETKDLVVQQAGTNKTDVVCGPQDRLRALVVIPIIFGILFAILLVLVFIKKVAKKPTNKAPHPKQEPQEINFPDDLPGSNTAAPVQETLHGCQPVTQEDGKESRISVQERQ

CD20 (human) = CD20 (human) (UniProt P11836)
Chain of CD20 (human) (P11836 whole entry): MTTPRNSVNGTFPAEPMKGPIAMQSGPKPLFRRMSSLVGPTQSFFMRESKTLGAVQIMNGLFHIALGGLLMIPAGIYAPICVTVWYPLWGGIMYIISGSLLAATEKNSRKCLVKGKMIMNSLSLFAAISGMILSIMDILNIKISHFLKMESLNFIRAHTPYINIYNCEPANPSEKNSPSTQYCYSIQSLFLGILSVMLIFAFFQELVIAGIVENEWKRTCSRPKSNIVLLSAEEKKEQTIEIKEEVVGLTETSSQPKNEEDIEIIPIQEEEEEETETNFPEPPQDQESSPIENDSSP

[5] = target: human CD20 on the surface of lymphoma cell lines (Ramos or Daudi) (human) (UniProt P11836)
Chain of human CD20 on the surface of lymphoma cell lines (Ramos or Daudi) (human) (P11836 whole entry): as above

Chain of human CD40 antigen on the surface of B cells in human PBMC (human) (P25942 20-277): as the sequence (P25942 20-277) above
Chain of human CD40 on the surface of B cells within PBMC from normal human subjects (human) (P25942 20-277): as above
Chain of CD40 ligand expressed on formaldehyde-fixed CHO cells (P29965 whole entry): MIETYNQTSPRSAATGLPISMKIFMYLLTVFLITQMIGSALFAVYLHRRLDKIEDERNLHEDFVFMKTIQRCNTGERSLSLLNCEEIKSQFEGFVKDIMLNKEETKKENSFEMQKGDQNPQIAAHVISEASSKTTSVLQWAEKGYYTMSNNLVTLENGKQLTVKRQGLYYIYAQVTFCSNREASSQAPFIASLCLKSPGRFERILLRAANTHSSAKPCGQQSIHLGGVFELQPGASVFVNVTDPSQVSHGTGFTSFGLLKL
Chain of CD40 ligand on formaldehyde-fixed CHO transfectant cells (P29965 whole entry): as above
Chain of human CD40 antigen expressed on the surface of cells (human) (P25942 20-277): as the sequence (P25942 20-277) above

average stimulation index (SI), proliferation of total PBMC [1]: 7.41 | Average SI of PBMC; PBMC + CHO-CD40L, index (1) [2]: 5.09 | PBMC proliferation (3H-thymidine), CPM of PBMC + CHO-CD40L; PBMC-010 [2]: 5280 CPM | PBMC proliferation (3H-thymidine), CPM of PBMC + CHO-CD40L; PBMC-011 Donor#1 [2]: 8250 CPM | PBMC proliferation (3H-thymidine), CPM of PBMC + CHO-CD40L; PBMC-011 Donor#2 [2]: 11600 CPM | PBMC proliferation (3H-thymidine), CPM of PBMC + CHO-CD40L; PBMC-011 Donor#3 [2]: 7960 CPM | PBMC proliferation (3H-thymidine), CPM of PBMC + CHO-CD40L; PBMC-011 Donor#4 [2]: 14300 CPM | PBMC proliferation (3H-thymidine), CPM of PBMC + CHO-CD40L; PBMC-014 [2]: 8790 CPM | PBMC proliferation (3H-thymidine), CPM of PBMC + CHO-CD40L; PBMC-015 Donor#1 [2]: 12900 CPM | PBMC proliferation (3H-thymidine), CPM of PBMC + CHO-CD40L; PBMC-015 Donor#2 [2]: 19100 CPM | PBMC proliferation (3H-thymidine), CPM of PBMC + CHO-CD40L; PBMC-015 Donor#3 [2]: 19800 CPM | PBMC proliferation (3H-thymidine), CPM of PBMC + CHO-CD40L; PBMC-016 [2]: 15800 CPM | index (1) = (PBMC + CHO-CD40L)/PBMC; PBMC-010 [2]: 3.73 | index (1) = (PBMC + CHO-CD40L)/PBMC; PBMC-011 Donor#1 [2]: 3.86 | index (1) = (PBMC + CHO-CD40L)/PBMC; PBMC-011 Donor#2 [2]: 4.87 | index (1) = (PBMC + CHO-CD40L)/PBMC; PBMC-011 Donor#3 [2]: 2.46 | index (1) = (PBMC + CHO-CD40L)/PBMC; PBMC-011 Donor#4 [2]: 3.41 | index (1) = (PBMC + CHO-CD40L)/PBMC; PBMC-014 [2]: 3.74 | index (1) = (PBMC + CHO-CD40L)/PBMC; PBMC-015 Donor#1 [2]: 3.94 | index (1) = (PBMC + CHO-CD40L)/PBMC; PBMC-015 Donor#2 [2]: 3.14 | index (1) = (PBMC + CHO-CD40L)/PBMC; PBMC-015 Donor#3 [2]: 8 | index (1) = (PBMC + CHO-CD40L)/PBMC; PBMC-016 [2]: 13.8 | Average SI of PBMC; PBMC + CHO-CD40L, index (1) [3]: 11.9 | Average Stimulation index; PBMC + CHO-CD40L, S. index (1) [3]: 22 | PBMC + CHO-CD40L, CPM; Immoblize-004 [3]: 11700 CPM | PBMC + CHO-CD40L, CPM; PBMC-012 [3]: 6810 CPM | PBMC + CHO-CD40L, CPM; PBMC-025 Donor#1 [3]: 42300 CPM | PBMC + CHO-CD40L, CPM; PBMC-025 Donor#2 [3]: 15000 CPM | PBMC + CHO-CD40L, CPM; PBMC-026 Donor#1 [3]: 18300 CPM | PBMC + CHO-CD40L, CPM; PBMC-026 Donor#2 [3]: 18100 CPM | PBMC + CHO-CD40L, CPM; PBMC-027 Donor#1 [3]: 13000 CPM | PBMC + CHO-CD40L, CPM; PBMC-027 Donor#2 [3]: 11900 CPM | PBMC + CHO-CD40L, CPM; PBMC-028 Donor#1 [3]: 22500 CPM | PBMC + CHO-CD40L, CPM; PBMC-028 Donor#2 [3]: 54900 CPM | PBMC + CHO-CD40L, CPM; PBMC-029 Donor#1 [3]: 10100 CPM | PBMC + CHO-CD40L, CPM; PBMC-029 Donor#2 [3]: 23100 CPM | PBMC + CHO-CD40L, CPM; PBMC-030 Donor#1 [3]: 57200 CPM | PBMC + CHO-CD40L, CPM; PBMC-030 Donor#2 [3]: 53900 CPM | PBMC + CHO-CD40L, CPM; PBMC-032 Donor#1 [3]: 15300 CPM | PBMC + CHO-CD40L, S. index (1); Immoblize-004 [3]: 13.7 | PBMC + CHO-CD40L, S. index (1); PBMC-012 [3]: 30.3 | PBMC + CHO-CD40L, index (1); PBMC-025 Donor#1 [3]: 10.4 | PBMC + CHO-CD40L, index (1); PBMC-025 Donor#2 [3]: 6.63 | PBMC + CHO-CD40L, index (1); PBMC-026 Donor#1 [3]: 8.78 | PBMC + CHO-CD40L, index (1); PBMC-026 Donor#2 [3]: 26.7 | PBMC + CHO-CD40L, index (1); PBMC-027 Donor#1 [3]: 4.75 | PBMC + CHO-CD40L, index (1); PBMC-027 Donor#2 [3]: 8.89 | PBMC + CHO-CD40L, index (1); PBMC-028 Donor#1 [3]: 5.26 | PBMC + CHO-CD40L, index (1); PBMC-028 Donor#2 [3]: 25.6 | PBMC + CHO-CD40L, index (1); PBMC-029 Donor#1 [3]: 16.5 | PBMC + CHO-CD40L, index (1); PBMC-029 Donor#2 [3]: 2.99 | PBMC + CHO-CD40L, index (1); PBMC-030 Donor#1 [3]: 13.7 | PBMC + CHO-CD40L, index (1); PBMC-030 Donor#2 [3]: 16.2 | PBMC + CHO-CD40L, index (1); PBMC-032 Donor#1 [3]: 8.45
Substance: CD40 ligand expressed on formaldehyde-fixed CHO cells (from UniProt P29965 1-261)

Average Stimulation Index (SI), B cells + CHO-CD40L [4]: 145 | S. index (1) = CPM (B cells + CHO-CD40L)/CPM (B cells alone); B cell-004 Donor 1 [4]: 7.49 | S. index (1) = CPM (B cells + CHO-CD40L)/CPM (B cells alone); B cell-004 Donor 2 [4]: 336 | S. index (1) = CPM (B cells + CHO-CD40L)/CPM (B cells alone); B cell-005 Donor 3 [4]: 92
Substance: CD40 ligand on formaldehyde-fixed CHO transfectant cells (from UniProt P29965 1-261)

% lysis (ADCC-012 Calcein AM, huNK E:T 10, 1 ug/ml) (CD20 (human)): 66% | % lysis - % lysis IgG1 (ADCC-006 Alarmor Blue, huNK E:T 2, 0.01 ug/ml) (CD20 (human)): 33% | % lysis - % lysis IgG1 (ADCC-013 51Cr, PBMC E:T 100, 0.001 ug/ml) (CD20 (human)): 0.35% | % lysis (Ramos or Daudi; ADCC-012 Calcien AM, huNK E:T 10; 1 ug/ml) [5]: 66% | % lysis - % lysis IgG1 (Ramos or Daudi; ADCC-006 Alarmor Blue, huNK E:T 2; 0.01 ug/ml) [5]: 33% | % lysis - % lysis IgG1 (Ramos or Daudi; ADCC-013 51Cr, PBMC E:T 100; 0.001 ug/ml) [5]: 0.35%
Substance: rituximab (Rituxan; IDEC-C2B8) (antibody)

Reference: patent publication US20080254026A1
